Here are results for three molecules from patent publication US20250230207A1, “COMPOSITION” (Worg Pharmaceuticals (Zhejiang) Co., Ltd., priority 2017, published 2025).

What all share (type): in vivo, Lewis rat
Data set [1] has as its system experimental autoimmune uveitis (EAU) in Lewis rats. Description: Example 1: development of uveitis (EAU) after immunisation with IRBP, gpMBP and/or huMBP. Particulars: for Maximum Score of EAU: TEFI retinal score, maximum possible 6; for clinical signs of anterior uveitis: visual score 0-3, compared to the gpMBP-administered group, data until Day 21. The protocol: This study aimed at studying the effect, in Lewis rats, of immunisations with guinea pig myelin basic protein (gpMBP), human myelin basic protein (huMBP) and/or interphotoreceptor retinoid-binding protein with regard to development of encephalomyelitis (EAE) and/or uveitis (EAU).
(§1) Adult female Lewis rats were randomly allocated to experimental groups and allowed to acclimatise for one week. On Day 0, animals were administered by subcutaneous injection with 200 microliters of an emulsion containing 20 micrograms of IRBP1177-1191 (Cambridge Bioscience, UK) and/or 100 micrograms of human (Fitzgerald Industries International, MA, US) or guinea pig Myelin Basic Protein (gpMBP) in incomplete Freund's adjuvant (Sigma, UK) supplemented with 5 mg/ml Mycobacterium Tuberculosis H37Ra ([…]) (Becton Dickenson, UK). From Day 0 until the end of the experiment, animals were weighed daily. From Day 0 until the end of the experiment, animals were scored daily for clinical signs of experimental autoimmune encephalomyelitis to include limpness, paresis and/or paralysis of the tail, hind limbs and/or front limbs. From Day 0 until the end of the experiment, animals were scored twice weekly for clinical signs of uveitis. On Day 21 (Groups 1, 2 and 3) or Day 28 (Groups 4 and 5), animals were culled and the following samples were dissected out and stored in tissue fixative for optional histopathology analysis: brain, spinal cord, right and left eyes.
From Day 0 until the end of the experiment, animals were visually scored twice per week for clinical signs of anterior uveitis using the following scoring system. The maximum possible score was 3. Data were graphed (Mean±SEM).
From Day 0 until the end of the experiment, animals were scored twice per week for clinical signs of intermediate and posterior uveitis. Retinal images were captured using TEFI in non-anaesthetised but restrained animals following pupil dilatation using Tropicamide 1% then Phenylephrine hydrochloride 2.5%. Retinal images were scored using the following system. The maximum possible score was 6. Data were graphed (Mean±SEM).
Animals with an average score for both eyes greater than 0.5 on at least two consecutive TEFI sessions (see FIG. 2) or a score greater than 1.0 on any occasion were considered to have developed clinical signs of posterior uveitis. Based on this criterion, the incidence of EAU was:
Due to the lack of pigmentation in the retina of Lewis rats, the scoring system below was used. This is due to the inability to identify areas of infiltration causing haziness and cuffing on a pale background. Inflammation of the optic disc could not be clearly identified and was not therefore scored, also, no structural damage was observed. Infiltration of retinal vessels could be identified by engorged appearance on a scale of 0-3, mild to severe. Retinal inflammation was identified by the appearance of small to large areas of redness caused by increase in vascularisation also on a scale of 0-3, giving a total possible score of 6.
Clinical signs of anterior uveitis were also observed during the experiment. Data collected until Day 21 were analysed by two-way ANOVA followed by Dunnett's post-test for multiple comparisons between experimental groups.

Data set [2] relates to experimental autoimmune encephalomyelitis (EAE) in Lewis rats. Put plainly: Example 1: development of experimental autoimmune encephalomyelitis (EAE) after immunisation. The settings on record: paralytic symptom scoring 0-6. The protocol:
as §1
Guinea pig MBP may induce Experimental autoimmune encephalomyelitis (EAE) in Lewis rats, a model for multiple sclerosis (MS). In this experiment, severe EAE was developed in Lewis rats immunised with gpMBP alone (incidence 8/8 rats; mean max score 3.5) or in combination with IRBP peptide (incidence 8/8 rats; mean max score 3.9) using the scoring system for paralytic symptoms: 0) no abnormality, (0.5) partial tail limpness, (1) complete tail limpness, (2) one hind limb paresis, (2.5) two hind limbs paresis, (3) one hind limb paralysis, (4) two hind limb paralysis, (5) incontinence and (6) moribund.

Data set [3] in a line: Example 1: bodyweights and non-specific clinical observations. Particulars: Day 11 to Day 21, compared to the IRBP-administered group. The source says:
Adult female Lewis rats were randomly allocated to experimental groups and allowed to acclimatise for one week. […] From Day 0 until the end of the experiment, animals were weighed daily. From Day 0 until the end of the experiment, animals were scored daily for clinical signs of experimental autoimmune encephalomyelitis to include limpness, paresis and/or paralysis of the tail, hind limbs and/or front limbs. From Day 0 until the end of the experiment, animals were scored twice weekly for clinical signs of uveitis. On Day 21 (Groups 1, 2 and 3) or Day 28 (Groups 4 and 5), animals were culled and the following samples were dissected out and stored in tissue fixative for optional histopathology analysis: brain, spinal cord, right and left eyes.
From Day 0 until the end of the experiment, animals were checked daily for non-specific clinical signs to include abnormal posture (hunched), abnormal coat condition (piloerection) and abnormal activity levels (reduced or increased activity).
From Day 0 until the end of the experiment, animals were weighed daily.

The mark [4] stands for this setting: Lewis rats immunised SC Day 0 in CFA.

As for “ADGSSWEGVGVVPDV [IRBP, reference compound]”, the “Onset (Day) of EAU” value in data set [1] (setting [4]) worked out at 10.5 ± 0.5 days. Besides, the “Incidence of EAU (clinical signs of posterior uveitis)” value in data set [1] (Lewis rats immunised SC Day 0 in CFA, TEFI score criterion, affected/total in brackets) is given as 100% (8/8). In data set [1], the “Maximum Score of EAU” value is 5.6 ± 0.3 and the “clinical signs of anterior uveitis” value is given as “observed from Day 11”. Also, in data set [2], the EAE incidence is 2/8 and the “EAE mean max score” value was determined as 1.0. The bodyweight loss entry in data set [3] is on record as “no significant bodyweight loss”.

B1: huMBP: human myelin basic protein, immunising antigen (protein, UniProt P02686 1-304, looked up)
Myelin basic protein: MGNHAGKRELNAEKASTNSETNRGESEKKRNLGELSRTTSEDNEVFGEADANQNNGTSSQDTAVTDSKRTADPKNAWQDAHPADPGSRPHLIRLFSRDAPGREDNTFKDRPSESDELQTIQEDSAATSESLDVMASQKRPSQRHGSKYLATASTMDHARHGFLPRHRDTGILDSIGRFFGGDRGAPKRGSGKDSHHPARTAHYGSLPQKSHGRTQDENPVVHFFKNIVTPRTPPPSQGKGRGLSLSRFSWGAEGQRPGFGYGGRASDYKSAHKGFKGVDAQGTLSKIFKLGGRDSRSGSPMARR
For the molecule B1, the “Onset (Day) of EAU” value in data set [1] (setting [4]) was 10.2 ± 0.7 days. In data set [1], the “Maximum Score of EAU” value is 4.1 ± 0.5; the “clinical signs of anterior uveitis” value is “observed on Day 14 (p<0.0001) and Day 18 (p<0.01)”. For the same molecule, in data set [2], the EAE incidence was 3/14 and the “EAE mean max score” value was 1.0. Besides, in data set [3], the bodyweight loss entry was “no significant bodyweight loss”.

B2: gpMBP: guinea pig myelin basic protein (SEQ ID NO: 6), immunising antigen (protein, listed as Cavia porcellus)
chain: ASQKRPSQRHGSKYLATASTMDHARHGFLPRHRDTGILDSIGRFFGSDRAAPKRGSGKDSHHAARTTHYGSLPQKSQRSQDENPVVHFFKNIVTPRTPPPSQGKGRGLSLSRFSWGAEGQKPGFGYGGRADYKSKGFKGAHDAQGTLSKIFKLGGRDSRSGSPMARR
Regarding B2, in data set [1] (setting [4]), the “Onset (Day) of EAU” value amounted to 11.5 ± 0.5 days. The “Maximum Score of EAU” value in data set [1] was 1.1 ± 0.2. The “severity of the clinical signs of EAU compared to the other immunised groups” value in data set [1] (vs IRBP (p<0.001), IRBP and gpMBP (p<0.01), IRBP and huMBP (p<0.01), huMBP (p<0.05)) was “significantly lower”. In data set [2], the EAE incidence is 8/8 and the “EAE mean max score” value amounted to 3.5. Further, in data set [3], the bodyweight loss result is recorded as “significant bodyweight loss”.
